Measured values reported in the DeepSol protein solubility set.

Assay: soluble on expression in E. coli; label from the status in PepcDB or PDB records

MSLAAHYDGLEKRTGAPYYGKKAEKVCNCAECLVFRRDVETGRLRLSNAYFCKVRLCSMCAWRRSLKIASHNKLIVEEANREYKPSWIFLTLTVRNVDGDDLKQTITDMMKAWNRLFGYKVVKTSVLGYFRALEITKNHEQNTYHPHFHVLIPVKRSYFTGKRYIKQAEWTSLWKRAMKLDYTPIVHVQRVKGKKGIDAEGIEKEVRKEMEEQKAILEISKYPVKDTDVIRGNEVTEENLDTVYYLDDALNARRLIGYGGILKEIHKELNLTDAEDGDLVRIEEDDDAVANETFEVMARWHVGIKNYIIQEGHHHHHH
soluble on expression in E. coli: soluble

MGSDKIHHHHHHMRYHIALVGRRNSGKSSLLNMLAGQQISIVSDIKGTTTDAVAKAYELQPLGPVTFYDTAGIDDEGTLGAMRVSATRRVLFRSDMALLVVDEQGLCPSDMALIDEIRQLQMPILMVFNKADICTPKAEDIAFCQNQSLPFIVVSAATGLAGKQLKQLMVELAPAEYKQEPLLAGDLYQAGDVILCVVPIDMAAPKGRLILPQVQILREALDRSAIAMVVKETELAQALSVVTPKLVISDAQAIKQVAAIVPDAVPLTTFSTLFARFKGDLAALATGADALDTLQDGDKVLISEACSHNVQEDDIGRVKLPRWINSYTGKQLEFVVTSGHDFPNDLEQYALVIHCGACMFNRNEMLRRIRECQRRQVPITNYGVAISKLQGVLPRVLTPFNRNPQQ
soluble on expression in E. coli: not soluble

MFAPALAYPRPMPELPEVETTRRKIEPLLRGKTIERIVHDAPHRYRNTERAHGRQVRGLTRRGKYLLLHLAAADAAEDEPHDLELIVHLGMTGGFRLEEGPHTRVTFELGSGEKLYFNDPRRFGKVVAVAPGDYASMPTLAAMGPEPLSDDFTEAEFVALAARCGPVKPWLLSQKPVSGVGNIYADESLWHARLHPAQTRLNADEAGRLYRAIREVMAAAVDKGGSSLGNGVGNYRQHDGEGGGFQHSHHVYGRAGQPCDRCGTPIEKIVLGQRGTHFCPVCQPLRTDRSA
soluble on expression in E. coli: not soluble

MKEFSIMIQGTISSWTEDTMSLLTVEKLGHTFGDRTLFKDVSMRLLAGEHVGLVGANGVGKSTFMNIITGQLIHDQGRVEWTPGTHYGYLDQHTVLTPGRTIRDVLADAFLPLFEKEKALNEVTEKMGTATPEELEELLEQMAEIQDALEAGGFYLLYMKIEEAARGLGIDAIGLDRDVSALSGGQRTKVLLAKLLLEQPEVLLLDEPTNYLDVEHIHWLTNYLKEYPHAFLLISHDTEFMNKCVDVIFHLEFTKMTRYTATYEKFLELAEINKNQHINAYEKQREFIKKQEDFIAKNKARYSTTGRAKSRQKQLDRMELIDRPETAIKPEFSFKESRASSRFVFEGENVEIGYTHPLLPKLSMTIERGEKIAIVGCNGVGKSTLLKTILGKIKPLSGKTSLGDFLEPAYFEQEVKADNITPIDDVWNTFPGLDQHQIRAMLAKCGLKNEHISRPLSQLSGGEQAKVRLCKLMGEESNWLLFDEPTNHLDVTAKAELKKAMKAYKGTILLVCHEPDFYEDWITKVWDVEEWSQNSK
soluble on expression in E. coli: not soluble

MGSDKIHHHHHHMSREILRVENLVKHFPIRAGVFKRIVGWVKAVDGVSFSINEGETFGLVGESGCGKTTIGMTLLRLYEPTSGRIIVDNEDTTYYFMPRSKAKKYIKQTYLSRFVNMKESDVEKLEGVDREYARIFFEEAKGSPKKFMSILLDDLPEKRKKFRREMQIVFQDPYSSLNPRLRVKSIVGEGIVTHRIARGKEVEKRIKEILEDVGIPSAYVYRFPHEFSGGQRQRIGIARALALEPKLVVADEAVAALDVSIRSQIINLMEDLQREHKLTYIFISHDLAVVKHISDRIGVMYLGKMVELAPKKDLFEKPLHPYTVALMSAIPVPDPTKKRERIILKGDVPSPINPPSGCRFHTRCPIAKEICSKEEPAFREVEEGHFVACHFPGELR
soluble on expression in E. coli: not soluble

MAHHHHHHMPELSYMFSSVSEPRALGAADDGQVITSHSNSSNNNHNNFYPLYSASGSTKVSNYGGHFENNGNNIISMNNKSDVNANTCGDSGEKGNEGEKWIWVLDPLTRKLRVPLSQLVHTQATATTGTVPSLCISFLEGRCRHQWCRQAHVLPSAIPQLRHEALHAPTCCRLHDDPHDTSVLTSRFKYIRVV
soluble on expression in E. coli: not soluble

MKEIKVNELTDNLFETISKEWMLVTAGTKDKFNTMTANWGGAGFLWNRPVAFIFIRPERYTFDFIEQNDYLTLSFLGEEHKEIHKICGSKSGRDMDKVKATGLSPLFTENGSITFEQARLTFECKKLYADLIKPGNFIDKSITDRWYGESHGGFHKMYVVEIVNVLSR
soluble on expression in E. coli: soluble

MDTQQLINAITPEAYQRLLYAVETGKWPEGTPLSQQQRDSCMQAVMLYQSKHNTQADHMSVGVGGEVVFKSKAELKKRFSEGEEDILRVNPNQEA
soluble on expression in E. coli: not soluble

SKGLSFSSVYSVGNAAQTGVEDVLEHLDETFDAATSSHTLLLYIETISKPKRFLKHARSLVQKGCRIAAIKSGTSSDGGRAAASHTGAMLNSDVAVDALFRKAGVVRCYSREELATVGAVLQHPVLTGKNMAVITHAGGPAVMLTDALSNGGMSVPPIPEEKTRTLLSELFDGSSVANPIDILATGTAEQLSKVIDTCEKDLDTIDGMVVIFGSPGLFDVSDAYDVIREQQKKCKKPIYAVLPSVINAKEGMERFIAQGGILFEEEVALARAICKVYQTPKPEMTEESELPKAAEIRRLLAGKSGMLGTGDML
soluble on expression in E. coli: not soluble

APSASFERRQGSVNPYIGRSPLVIKSYAEKLEETIAYFEAQGDELNAARTRTVQGIPTFAWISDSATIDTIQPLIADAVAHQEASGEQVLVQLVIYNLPDRDCAAKASDGEFHLDDDGANKYRAYVDRIVAELSTADADKLHFSIVLEPDSLGNMVTNMHVPKCQGAATAYKEGIAYTIASLQKPNIDLYIDAAHGGWLGWNDNLRPSAEIFKETLDLARQITPNATVRGLAINVSNYNPYKTRAREDYTEWNNAYDEWNYVKTLTPHLQAVGFPAQFIVDQGRSGREGIRTEWGQWCNIRNAGFGIRPTTDQAIVDSANVDAIVWVKPGGESDGTSDVNAVRFDENCRSPASHVPAPEAGEWFNEFVVNLVINANPPLEPTYAAAALEHHHHHH
soluble on expression in E. coli: soluble

MKYAVLIGDGMADYPIEELGSRTILQAARTPAMDSIAARGKTGLAKTVPEGFPPGSDVANMSIFGYDPAIYYSGRAPLEAASMGVALAADDVAFRCNLITIENGKIKDYSAGHISSDEAEILIDTLDSELRTEKVRFYPGISYRHLIVAGNDLGAETECLEHHHHHH
soluble on expression in E. coli: soluble

MEGLLMYDVHSKHADDFISHEEILETLAYADENKTNEALIDSILEKARLRKGLSHREASVLLACPIEEKNQEIYRLAEQIKKDFYGNRIVMFAPLYLSNYCVNGCTYCPYHLKNKHIARKQLTQEEIRKEVIALQDMGHKRLALEAGEDPVRNTIDYYLESIKTIYSIKHKNGAIRRVNINIAATTVDNYRLLKEAGIGTYILFQETYHKESYLALHPTGPKHDYNYHTEAMDRAMEGGIDDVGIGVLFGLDKYRYEFAGLLMHAEHLEAAFGVGPHTISVPRLRHADDINADEFDNGIDDDTFAKIVACIRIAVPYTGMIISTRESQKCRERVLHLGVSQISGGSRTSVGGYCEPEPDDAKSEQFDVSDTRTLDEVVRWLMEMDYIPSFCTACYREGRTGDRFMSLCKSGQIQNCCHPNALMTLKEYLMDYASPETKAIGDRLIDKEVLNVPNEKARAVVLENLRLIEQNNRRDFRF
soluble on expression in E. coli: not soluble

MTDHALLLVNLGSPASTQVADVRSYLNQFLMDPYVIDIPWPLRRLLVSLILIKRPEQSAHAYASIWWDEGSPLVVLSKRLQQAMKKEWSHGPVELAMRYGEPSIETVLTRLSEQGFKKVTLAPLYPQFADSTVTTVIEEAKRVVRAKSLKMQFSVLQPFYDQPEYVSALVESVRPHLEQPYDHLLLSFHGLPERHLHKRDPTGKHCLKDDCCMTAPAQVVATCYRAQCLQSAAAFAKRMGIPDGKWSVSFQSRLGRAKWIEPYTEARLDELAAQGVKKLLVMCPAFVADCIETLEEIGDRGAEQFKEAGGEELILVPCLNDDPNWAKELNRLCERAPLML
soluble on expression in E. coli: not soluble

MIIYFIGTGGSEGIPVHLCDCNTCNEARKFRFAQRRPSTLAVIGENGEVILFDVGTDIREFLNVPLDAIFLTHWHHDHIYGLYKLRWIARETNLYAPEGHADALILQDPKNLRPKIIKAGEKIRIGDIKVTSVKLNHQIETLGYIIEEDGKRVAILYDTKGLPPETREYLEDISPLRVAIVDATYPPGFVDPYHNNVNEAVEMSIDIAERIVLSHISHKNLPFLKLVNYTRKMWGGKVLVAYDGMVFYV
soluble on expression in E. coli: soluble
